The series concerns the molecule itself. Briefly: native gel or EMSA; blue native PAGE (3-9% gradient) of 50 ug spinal cord lysate in BN buffer (1% Triton X-100, 12 mM NaCl, 500 mM 6-aminohexanoic acid, 20 mM Bis-Tris pH 7.0), immunoblot with anti-AQP4. (Mobility shift assays separate free from complexed probe on a gel.)

Experimental findings from publication PMC8361696, “Regulation of aquaporin‐4 expression in the central nervous system investigated using M23‐AQP4 null mouse” (Glia, 2021) are described below.

B1: M1-AQP4 (M23I) of M23-null mouse spinal cord (natural protein, mouse (endogenous in spinal cord), UniProt P55088 1-323, looked up)
chain: MSDGAAARRWGKCGHSCSRESIIVAFKGVWTQAFWKAVSAEFLATLIFVLLGVGSTINWGGSENPLPVDMVLISLCFGLSIATMVQCFGHISGGHINPAVTVAMVCTRKISIAKSVFYIIAQCLGAIIGAGILYLVTPPSVVGGLGVTTVHGNLTAGHGLLVELIITFQLVFTIFASCDSKRTDVTGSIALAIGFSVAIGHLFAINYTGASMNPARSFGPAVIMGNWANHWIYWVGPIMGAVLAGALYEYVFCPDVELKRRLKEAFSKAAQQTKGSYMEVEDNRSQVETEDLILKPGVVHVIDIDRGEEKKGKDSSGEVLSSV
notes: mouse aquaporin-4, M1-AQP4 isoform with the methionine codon at position 23 replaced by isoleucine, so no M23-AQP4 is made; The mouse model is described in de Bellis et al., 2020; also called M1M23I; AQP4 of M23-null mice; source: endogenous, M23-null (CRISPR/Cas9 M23I knock-in) mouse spinal cord, lysate in BN buffer (1% Triton X-100)
As to B1, the stoichiometry N (commonly the number of molecules, sites or subunits per partner or assembly) worked out at 4.
